Laboratory results published in publication PMC9352680, “A comprehensive thermodynamic model for RNA binding by the Saccharomyces cerevisiae Pumilio protein PUF4”.

T1: PUF4 RNA-binding domain (Saccharomyces cerevisiae, UniProt P25339 537-888)
T1 sequence: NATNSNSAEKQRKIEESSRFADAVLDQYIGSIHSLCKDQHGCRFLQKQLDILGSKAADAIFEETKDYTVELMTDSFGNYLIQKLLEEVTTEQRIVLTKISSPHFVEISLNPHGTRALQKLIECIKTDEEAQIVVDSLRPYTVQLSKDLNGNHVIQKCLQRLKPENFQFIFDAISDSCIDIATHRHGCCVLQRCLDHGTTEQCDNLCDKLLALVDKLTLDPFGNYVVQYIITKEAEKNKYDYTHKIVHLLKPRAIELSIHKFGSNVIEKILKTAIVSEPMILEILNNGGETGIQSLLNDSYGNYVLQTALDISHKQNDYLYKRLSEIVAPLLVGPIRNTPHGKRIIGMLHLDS


target: T1, PUF4 RNA-binding domain; experiment: Mg; RNA-MaP; 20 mM Na-HEPES pH 7.4, 30 mM KOAc, 0.75 mM MgCl2, 0.1% Tween-20, 5% glycerol, 0.1 mg/mL BSA, 2 mM DTT; 25 C; 0.0125-409.6 nM protein; details: tags: N-His6-TEV cleaved; C-SNAP kept, Cy3B-labelled; label: tethered on chip by stalled RNA polymerase

Binder | Kd [nM]
UCUCUUUGUAUAUCCUCUCUU (ssRNA) [Ib_S1_P4E.1_K4.1_C4.1_H4.1_A4.1_F4.1_[T8C]_[A9C]_T4.1] | 18.9
UCUCUUUGUAUAUCUUCUCUU (ssRNA) [Ib_S1_P4E.1_K4.1_C4.1_H4.1_A4.1_F4.1_[T8C]_[A9T]_T4.1] | 13.4
Ic_S2_P4E.1_K4.1_C4.1_H4.1_A4.1_[A6G]_[T7C]_F4.1_[A9T]_T4.1 (ssRNA) RNA: UUUGAUUAAUAUGAUAUCGUUCUUUCUUGUAUGCUUUUCUUUCUCGAUAUCAUAUUAAUCUUU | 23.9
Ic_S2_P4E.1_K4.1_C4.1_H4.1_A4.1_[A6C]_[T7C]_F4.1_[T8C]_[A9T]_T4.1 (ssRNA) RNA: UUUGAUUAAUAUGAUAUCGUUCUUUCUUGUAUCCCUUUCUUUCUCGAUAUCAUAUUAAUCUUU | 166
Ic_S2_P4E.1_K4.1_C4.1_H4.1_A4.1_[A6C]_[T7C]_F4.1_[T8A]_T4.1 (ssRNA) RNA: UUUGAUUAAUAUGAUAUCGUUCUUUCUUGUAUCCAAUUCUUUCUCGAUAUCAUAUUAAUCUUU | 369
Ic_S2_P4E.1_K4.1_C4.1_H4.1_A4.1_[A6T]_[T7C]_F4.1_[T8A]_[A9C]_T4.1 (ssRNA) RNA: UUUGAUUAAUAUGAUAUCGUUCUUUCUUGUAUUCACUUCUUUCUCGAUAUCAUAUUAAUCUUU | 595
Ic_S2_P4E.1_K4.1_C4.1_H4.1_A4.1_[A6C]_F4.1_[T8A]_[A9G]_T4.1 (ssRNA) RNA: UUUGAUUAAUAUGAUAUCGUUCUUUCUUGUAUCUAGUUCUUUCUCGAUAUCAUAUUAAUCUUU | 32.9
Ic_S2_P4E.1_K4.1_C4.1_H4.1_A4.1_[A6T]_[T7C]_F4.1_[T8C]_[A9C]_T4.1 (ssRNA) RNA: UUUGAUUAAUAUGAUAUCGUUCUUUCUUGUAUUCCCUUCUUUCUCGAUAUCAUAUUAAUCUUU | 162
Ic_S2_P4E.1_K4.1_C4.1_H4.1_A4.1_[A6C]_[T7A]_F4.1_[T8C]_[A9T]_T4.1 (ssRNA) RNA: UUUGAUUAAUAUGAUAUCGUUCUUUCUUGUAUCACUUUCUUUCUCGAUAUCAUAUUAAUCUUU | 76.1
Ic_S2_P4E.1_K4.1_C4.1_H4.1_A4.1_[A6C]_[T7C]_F4.1_[T8G]_[A9C]_T4.1 (ssRNA) RNA: UUUGAUUAAUAUGAUAUCGUUCUUUCUUGUAUCCGCUUCUUUCUCGAUAUCAUAUUAAUCUUU | 800
Ic_S2_P4E.1_K4.1_C4.1_H4.1_A4.1_[A6C]_[T7A]_F4.1_[A9G]_T4.1 (ssRNA) RNA: UUUGAUUAAUAUGAUAUCGUUCUUUCUUGUAUCAUGUUCUUUCUCGAUAUCAUAUUAAUCUUU | 4.75
Ic_S2_P4E.1_K4.1_C4.1_H4.1_A4.1_[A6C]_[T7C]_F4.1_[T8A]_[A9C]_T4.1 (ssRNA) RNA: UUUGAUUAAUAUGAUAUCGUUCUUUCUUGUAUCCACUUCUUUCUCGAUAUCAUAUUAAUCUUU | 820
Ic_S2_P4E.1_K4.1_C4.1_H4.1_A4.1_[A6G]_F4.1_[T8G]_[A9G]_T4.1 (ssRNA) RNA: UUUGAUUAAUAUGAUAUCGUUCUUUCUUGUAUGUGGUUCUUUCUCGAUAUCAUAUUAAUCUUU | 215
Ic_S2_P4E.1_K4.1_C4.1_H4.1_A4.1_[A6T]_[T7C]_F4.1_[T8G]_[A9T]_T4.1 (ssRNA) RNA: UUUGAUUAAUAUGAUAUCGUUCUUUCUUGUAUUCGUUUCUUUCUCGAUAUCAUAUUAAUCUUU | 112
Ic_S2_P4E.1_K4.1_C4.1_H4.1_A4.1_[A6C]_[T7G]_F4.1_[A9G]_T4.1 (ssRNA) RNA: UUUGAUUAAUAUGAUAUCGUUCUUUCUUGUAUCGUGUUCUUUCUCGAUAUCAUAUUAAUCUUU | 59.3
Ic_S2_P4E.1_K4.1_C4.1_H4.1_A4.1_[A6G]_F4.1_[T8C]_[A9T]_T4.1 (ssRNA) RNA: UUUGAUUAAUAUGAUAUCGUUCUUUCUUGUAUGUCUUUCUUUCUCGAUAUCAUAUUAAUCUUU | 57
Ic_S2_P4E.1_K4.1_C4.1_H4.1_A4.1_[A6C]_F4.1_[T8C]_[A9C]_T4.1 (ssRNA) RNA: UUUGAUUAAUAUGAUAUCGUUCUUUCUUGUAUCUCCUUCUUUCUCGAUAUCAUAUUAAUCUUU | 28.4
Ic_S2_P4E.1_K4.1_C4.1_H4.1_A4.1_[A6T]_[T7C]_F4.1_[T8C]_[A9G]_T4.1 (ssRNA) RNA: UUUGAUUAAUAUGAUAUCGUUCUUUCUUGUAUUCCGUUCUUUCUCGAUAUCAUAUUAAUCUUU | 168
Ic_S2_P4E.1_K4.1_C4.1_H4.1_A4.1_[A6C]_F4.1_[T8C]_[A9G]_T4.1 (ssRNA) RNA: UUUGAUUAAUAUGAUAUCGUUCUUUCUUGUAUCUCGUUCUUUCUCGAUAUCAUAUUAAUCUUU | 23.6
Ic_S2_P4E.1_K4.1_C4.1_H4.1_A4.1_[A6T]_[T7G]_F4.1_[A9T]_T4.1 (ssRNA) RNA: UUUGAUUAAUAUGAUAUCGUUCUUUCUUGUAUUGUUUUCUUUCUCGAUAUCAUAUUAAUCUUU | 57
Ic_S2_P4E.1_K4.1_C4.1_H4.1_A4.1_[A6G]_F4.1_[T8C]_[A9C]_T4.1 (ssRNA) RNA: UUUGAUUAAUAUGAUAUCGUUCUUUCUUGUAUGUCCUUCUUUCUCGAUAUCAUAUUAAUCUUU | 32.5
Ic_S2_P4E.1_K4.1_C4.1_H4.1_A4.1_[A6C]_F4.1_[T8C]_[A9T]_T4.1 (ssRNA) RNA: UUUGAUUAAUAUGAUAUCGUUCUUUCUUGUAUCUCUUUCUUUCUCGAUAUCAUAUUAAUCUUU | 17.7
Ic_S2_P4E.1_K4.1_C4.1_H4.1_A4.1_[A6C]_[T7C]_F4.1_[T8G]_[A9T]_T4.1 (ssRNA) RNA: UUUGAUUAAUAUGAUAUCGUUCUUUCUUGUAUCCGUUUCUUUCUCGAUAUCAUAUUAAUCUUU | 149

Binder | Kd [nM]
Ic_S2_P4E.1_K4.1_C4.1_H4.1_A4.1_[A6T]_[T7G]_F4.1_[T8G]_[A9T]_T4.1 (ssRNA) RNA: UUUGAUUAAUAUGAUAUCGUUCUUUCUUGUAUUGGUUUCUUUCUCGAUAUCAUAUUAAUCUUU | 1200
Ic_S2_P4E.1_K4.1_C4.1_H4.1_A4.1_[A6C]_[T7A]_F4.1_[A9T]_T4.1 (ssRNA) RNA: UUUGAUUAAUAUGAUAUCGUUCUUUCUUGUAUCAUUUUCUUUCUCGAUAUCAUAUUAAUCUUU | 3.46
Ic_S2_P4E.1_K4.1_C4.1_H4.1_A4.1_[A6C]_[T7A]_F4.1_[T8A]_[A9C]_T4.1 (ssRNA) RNA: UUUGAUUAAUAUGAUAUCGUUCUUUCUUGUAUCAACUUCUUUCUCGAUAUCAUAUUAAUCUUU | 309
Ic_S2_P4E.1_K4.1_C4.1_H4.1_A4.1_[A6G]_F4.1_[T8G]_[A9C]_T4.1 (ssRNA) RNA: UUUGAUUAAUAUGAUAUCGUUCUUUCUUGUAUGUGCUUCUUUCUCGAUAUCAUAUUAAUCUUU | 40
Ic_S2_P4E.1_K4.1_C4.1_H4.1_A4.1_[A6C]_F4.1_[T8A]_[A9T]_T4.1 (ssRNA) RNA: UUUGAUUAAUAUGAUAUCGUUCUUUCUUGUAUCUAUUUCUUUCUCGAUAUCAUAUUAAUCUUU | 7.99
Ic_S2_P4E.1_K4.1_C4.1_H4.1_A4.1_[A6G]_F4.1_[T8A]_[A9T]_T4.1 (ssRNA) RNA: UUUGAUUAAUAUGAUAUCGUUCUUUCUUGUAUGUAUUUCUUUCUCGAUAUCAUAUUAAUCUUU | 26.9
Ic_S2_P4E.1_K4.1_C4.1_H4.1_A4.1_[A6T]_[T7G]_F4.1_[T8C]_[A9C]_T4.1 (ssRNA) RNA: UUUGAUUAAUAUGAUAUCGUUCUUUCUUGUAUUGCCUUCUUUCUCGAUAUCAUAUUAAUCUUU | 645
Ic_S2_P4E.1_K4.1_C4.1_H4.1_A4.1_[A6C]_[T7C]_F4.1_[T8G]_[A9G]_T4.1 (ssRNA) RNA: UUUGAUUAAUAUGAUAUCGUUCUUUCUUGUAUCCGGUUCUUUCUCGAUAUCAUAUUAAUCUUU | 866
Ic_S2_P4E.1_K4.1_C4.1_H4.1_A4.1_[A6C]_F4.1_[T8G]_[A9T]_T4.1 (ssRNA) RNA: UUUGAUUAAUAUGAUAUCGUUCUUUCUUGUAUCUGUUUCUUUCUCGAUAUCAUAUUAAUCUUU | 17.9
Ic_S2_P4E.1_K4.1_C4.1_H4.1_A4.1_[A6T]_[T7G]_F4.1_[T8G]_[A9C]_T4.1 (ssRNA) RNA: UUUGAUUAAUAUGAUAUCGUUCUUUCUUGUAUUGGCUUCUUUCUCGAUAUCAUAUUAAUCUUU | > 2300
Ic_S2_P4E.1_K4.1_C4.1_H4.1_A4.1_[A6C]_[T7A]_F4.1_[T8C]_T4.1 (ssRNA) RNA: UUUGAUUAAUAUGAUAUCGUUCUUUCUUGUAUCACAUUCUUUCUCGAUAUCAUAUUAAUCUUU | 347
Ic_S2_P4E.1_K4.1_C4.1_H4.1_A4.1_[A6C]_[T7C]_F4.1_[A9C]_T4.1 (ssRNA) RNA: UUUGAUUAAUAUGAUAUCGUUCUUUCUUGUAUCCUCUUCUUUCUCGAUAUCAUAUUAAUCUUU | 27.5
Ic_S2_P4E.1_K4.1_C4.1_H4.1_A4.1_[A6G]_F4.1_[T8G]_[A9T]_T4.1 (ssRNA) RNA: UUUGAUUAAUAUGAUAUCGUUCUUUCUUGUAUGUGUUUCUUUCUCGAUAUCAUAUUAAUCUUU | 17
Ic_S2_P4E.1_K4.1_C4.1_H4.1_A4.1_[A6T]_[T7C]_F4.1_[T8A]_[A9T]_T4.1 (ssRNA) RNA: UUUGAUUAAUAUGAUAUCGUUCUUUCUUGUAUUCAUUUCUUUCUCGAUAUCAUAUUAAUCUUU | 89.9
Ic_S2_P4E.1_K4.1_C4.1_H4.1_A4.1_[A6C]_[T7G]_F4.1_[A9C]_T4.1 (ssRNA) RNA: UUUGAUUAAUAUGAUAUCGUUCUUUCUUGUAUCGUCUUCUUUCUCGAUAUCAUAUUAAUCUUU | 507
Ic_S2_P4E.1_K4.1_C4.1_H4.1_A4.1_[A6G]_F4.1_[T8A]_[A9C]_T4.1 (ssRNA) RNA: UUUGAUUAAUAUGAUAUCGUUCUUUCUUGUAUGUACUUCUUUCUCGAUAUCAUAUUAAUCUUU | 55.8
Ic_S2_P4E.1_K4.1_C4.1_H4.1_A4.1_[A6C]_[T7A]_F4.1_[T8C]_[A9G]_T4.1 (ssRNA) RNA: UUUGAUUAAUAUGAUAUCGUUCUUUCUUGUAUCACGUUCUUUCUCGAUAUCAUAUUAAUCUUU | 228
Ic_S2_P4E.1_K4.1_C4.1_H4.1_A4.1_[A6T]_[T7C]_F4.1_[T8A]_[A9G]_T4.1 (ssRNA) RNA: UUUGAUUAAUAUGAUAUCGUUCUUUCUUGUAUUCAGUUCUUUCUCGAUAUCAUAUUAAUCUUU | 350
Ic_S2_P4E.1_K4.1_C4.1_H4.1_A4.1_[A6T]_[T7G]_F4.1_[A9C]_T4.1 (ssRNA) RNA: UUUGAUUAAUAUGAUAUCGUUCUUUCUUGUAUUGUCUUCUUUCUCGAUAUCAUAUUAAUCUUU | 127
Ic_S2_P4E.1_K4.1_C4.1_H4.1_A4.1_[A6T]_[T7G]_F4.1_[T8C]_T4.1 (ssRNA) RNA: UUUGAUUAAUAUGAUAUCGUUCUUUCUUGUAUUGCAUUCUUUCUCGAUAUCAUAUUAAUCUUU | 742
Ic_S2_P4E.1_K4.1_C4.1_H4.1_A4.1_[A6T]_[T7G]_F4.1_[T8C]_[A9T]_T4.1 (ssRNA) RNA: UUUGAUUAAUAUGAUAUCGUUCUUUCUUGUAUUGCUUUCUUUCUCGAUAUCAUAUUAAUCUUU | 536
UCUCUUUGUAUAUGUUCUCUU (ssRNA) [Ic_S1_P4E.1_K4.1_C4.1_H4.1_A4.1_F4.1_[T8G]_[A9T]_T4.1] | 15.6
UCUCUUUGUAUAUCGUCUCUU (ssRNA) [Ib_S1_P4E.1_K4.1_C4.1_H4.1_A4.1_F4.1_[T8C]_[A9G]_T4.1] | 26.1
